Assay [1] has as its target Heat shock cognate 71 kDa protein (chicken (endogenous in DF-1)) (UniProt O73885).
Assay [2] shares this target. This is another data set of the same source.

UniProt O73885, sequence (O73885 whole entry): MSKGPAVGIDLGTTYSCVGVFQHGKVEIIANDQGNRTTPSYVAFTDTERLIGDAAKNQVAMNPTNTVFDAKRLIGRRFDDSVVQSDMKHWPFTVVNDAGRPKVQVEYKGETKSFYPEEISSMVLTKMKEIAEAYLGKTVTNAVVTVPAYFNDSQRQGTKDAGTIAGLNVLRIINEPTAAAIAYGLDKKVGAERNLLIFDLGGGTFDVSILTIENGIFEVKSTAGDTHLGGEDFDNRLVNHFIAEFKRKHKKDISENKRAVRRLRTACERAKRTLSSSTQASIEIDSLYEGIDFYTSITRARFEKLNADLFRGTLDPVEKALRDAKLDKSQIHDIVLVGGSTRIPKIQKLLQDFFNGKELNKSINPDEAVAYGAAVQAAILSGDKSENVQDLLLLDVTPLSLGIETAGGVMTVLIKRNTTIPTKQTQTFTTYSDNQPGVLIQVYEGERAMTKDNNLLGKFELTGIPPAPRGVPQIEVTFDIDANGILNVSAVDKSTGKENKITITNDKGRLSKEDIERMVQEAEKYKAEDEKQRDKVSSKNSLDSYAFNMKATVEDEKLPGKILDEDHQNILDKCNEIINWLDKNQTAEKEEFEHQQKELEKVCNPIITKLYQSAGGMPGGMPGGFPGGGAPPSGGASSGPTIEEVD

In the case of IBDV VP2 protein (natural protein), the viral titer of IBDV in DF-1 cells pretreated with 5 uM of the HSC70 inhibitor VER155008, 24-72 h after infection (untreated control 3.15-7.23), whole IBDV virus (log10TCID50/mL) in assay [1] amounted to 0. In assay [2], the VP2/GAPDH by western blot in DF-1 cells pretreated with anti-HSC70 antibody at 25, 12.5 and 6.25 ug/mL and infected with IBDV (normal IgG 3.329, no antibody 3.345) amounted to 1.43 VP2/GAPDH.

These data come from paper PMC7201719.
